Data reported in paper PMC12835413, “Allosteric zinc inhibition and interdomain regulation govern the catalytic mechanism of the E3-independent ubiquitin-conjugating enzyme hUBE2O” (The Journal of Biological Chemistry, 2025).

Target: the molecule itself
Assay: SEC-MALS; 100 ul of 2 mg/ml purified Flag-UBE2O-TwinStrep on Superdex 200 Increase 5/150 GL; 50 mM Tris-HCl pH 7.4, 200 mM NaCl, 0.5 mM TCEP

B1: Flag-UBE2O-TwinStrep (purified recombinant Homo sapiens UBE2O) (enzyme, human, UniProt Q9C0C9 1-1292, looked up)
chain: MADPAAPTPAAPAPAQAPAPAPEAVPAPAAAPVPAPAPASDSASGPSSDSGPEAGSQRLLFSHDLVSGRYRGSVHFGLVRLIHGEDSDSEGEEEGRGSSGCSEAGGAGHEEGRASPLRRGYVRVQWYPEGVKQHVKETKLKLEDRSVVPRDVVRHMRSTDSQCGTVIDVNIDCAVKLIGTNCIIYPVNSKDLQHIWPFMYGDYIAYDCWLGKVYDLKNQIILKLSNGARCSMNTEDGAKLYDVCPHVSDSGLFFDDSYGFYPGQVLIGPAKIFSSVQWLSGVKPVLSTKSKFRVVVEEVQVVELKVTWITKSFCPGGTDSVSPPPSVITQENLGRVKRLGCFDHAQRQLGERCLYVFPAKVEPAKIAWECPEKNCAQGEGSMAKKVKRLLKKQVVRIMSCSPDTQCSRDHSMEDPDKKGESKTKSEAESASPEETPDGSASPVEMQDEGAEEPHEAGEQLPPFLLKEGRDDRLHSAEQDADDEAADDTDDTSSVTSSASSTTSSQSGSGTSRKKSIPLSIKNLKRKHKRKKNKITRDFKPGDRVAVEVVTTMTSADVMWQDGSVECNIRSNDLFPVHHLDNNEFCPGDFVVDKRVQSCPDPAVYGVVQSGDHIGRTCMVKWFKLRPSGDDVELIGEEEDVSVYDIADHPDFRFRTTDIVIRIGNTEDGAPHKEDEPSVGQVARVDVSSKVEVVWADNSKTIILPQHLYNIESEIEESDYDSVEGSTSGASSDEWEDDSDSWETDNGLVEDEHPKIEEPPIPPLEQPVAPEDKGVVISEEAATAAVQGAVAMAAPMAGLMEKAGKDGPPKSFRELKEAIKILESLKNMTVEQLLTGSPTSPTVEPEKPTREKKFLDDIKKLQENLKKTLDNVAIVEEEKMEAVPDVERKEDKPEGQSPVKAEWPSETPVLCQQCGGKPGVTFTSAKGEVFSVLEFAPSNHSFKKIEFQPPEAKKFFSTVRKEMALLATSLPEGIMVKTFEDRMDLFSALIKGPTRTPYEDGLYLFDIQLPNIYPAVPPHFCYLSQCSGRLNPNLYDNGKVCVSLLGTWIGKGTERWTSKSSLLQVLISIQGLILVNEPYYNEAGFDSDRGLQEGYENSRCYNEMALIRVVQSMTQLVRRPPEVFEQEIRQHFSTGGWRLVNRIESWLETHALLEKAQALPNGVPKASSSPEPPAVAELSDSGQQEPEDGGPAPGEASQGSDSEGGAQGLASASRDHTDQTSETAPDASVPPSVKPKKRRKSYRSFLPEKSGYPDIGFPLFPLSKGFIKSIRGVLTQFRAALLEAGMPECTEDK
notes: Homo sapiens UBE2O (ubiquitin-conjugating enzyme E2O), UniProt Q9C0C9, from plasmid pLV-Flag-hUBE2O-TS; also called hUBE2O; Flag-hUBE2O-TwinStrep; source: Expi293F cells, purified; not shown: Flag, N-terminal, kept
B1 was tested, and the “stoichiometry N” value was 2.
